{"source": "paper PMC11761773", "target": "Fc-binding nanodisc F-ND_(P2N2), made with F-MSP2N2", "assay": "SEC"}
{"substance": "immunoglobulin G (IgG) (antibody)", "values": [{"measurement": "stoichiometry N", "result": 1, "unit": "molar ratio"}]}
